From US20260166166A1 (CURON BIOPHARMACEUTICAL SHANGHAI, published 2026)
Substitutions are numbered along the chain they refer to. Each block holds one binder with its values, some of them ahead of it.

Target: T1, L1 cell adhesion molecule (L1CAM) on the surface of HeLa cells (human, UniProt P32004 20-1257)
T1 construct: whole, on cells; Endogenous L1CAM of HeLa cells ("HeLa cells that highly express human L1CAM"); also called CD171; human L1CAM
Assay: flow cytometry on HeLa cells, MFI dose-response
Description: Humanized anti-L1CAM antibodies (Human IgG1-Kappa) are diluted in complete medium, in a four-fold serial dilution, with 7 concentration gradient points.
HeLa cells are cultured in DMEM complete medium (Corning, 10-013-CVR) containing 10% FBS (Gibco, 10099-141) and 100 U/mL penicillin-streptomycin mixture (Thermofisher, 15140122). When the cell coverage in the culture container reaches 80-90%, TrypLE (Thermofisher, 12604-013) is used to digest the HeLa cells from the culture container, and they are seeded in a 96-well plate (AXYGEN, P-96-450V-C) at a density of 2.2×10⁶ cells/ml, with 100,000 cells (45 μL complete medium) per well. Then, 5 μL of the antibody dilution is added to each well, mixed gently, and the 96-well plate is incubated at 4° C. for 1 hour. Then, 150 μL of PBS (Corning, 21-040-CVC) containing 2% FBS is added to each well, centrifuged at 1400 rpm for 4 minutes, the supernatant is removed, and washed once again. Then, 50 μL of Alexa Fluor 647-labeled goat anti-human fluorescent secondary antibody (Jacksonimmuno, 109-605-088) diluted at 1:800 is added to each well, and the 96-well plate is incubated at 4° C. for 0.5 hours. The cells are washed twice with PBS solution containing 2% FBS, then resuspended in 120 μL of PBS, and the fluorescent signal on the cell surface is detected using a flow cytometer (BD FACS Celesta), obtaining and the median fluorescence intensity (MFI). A dose-response curve is generated, and the half-maximal effective concentration (EC50) is calculated using non-linear regression with GraphPad software.

T1 sequence (P32004 20-1257): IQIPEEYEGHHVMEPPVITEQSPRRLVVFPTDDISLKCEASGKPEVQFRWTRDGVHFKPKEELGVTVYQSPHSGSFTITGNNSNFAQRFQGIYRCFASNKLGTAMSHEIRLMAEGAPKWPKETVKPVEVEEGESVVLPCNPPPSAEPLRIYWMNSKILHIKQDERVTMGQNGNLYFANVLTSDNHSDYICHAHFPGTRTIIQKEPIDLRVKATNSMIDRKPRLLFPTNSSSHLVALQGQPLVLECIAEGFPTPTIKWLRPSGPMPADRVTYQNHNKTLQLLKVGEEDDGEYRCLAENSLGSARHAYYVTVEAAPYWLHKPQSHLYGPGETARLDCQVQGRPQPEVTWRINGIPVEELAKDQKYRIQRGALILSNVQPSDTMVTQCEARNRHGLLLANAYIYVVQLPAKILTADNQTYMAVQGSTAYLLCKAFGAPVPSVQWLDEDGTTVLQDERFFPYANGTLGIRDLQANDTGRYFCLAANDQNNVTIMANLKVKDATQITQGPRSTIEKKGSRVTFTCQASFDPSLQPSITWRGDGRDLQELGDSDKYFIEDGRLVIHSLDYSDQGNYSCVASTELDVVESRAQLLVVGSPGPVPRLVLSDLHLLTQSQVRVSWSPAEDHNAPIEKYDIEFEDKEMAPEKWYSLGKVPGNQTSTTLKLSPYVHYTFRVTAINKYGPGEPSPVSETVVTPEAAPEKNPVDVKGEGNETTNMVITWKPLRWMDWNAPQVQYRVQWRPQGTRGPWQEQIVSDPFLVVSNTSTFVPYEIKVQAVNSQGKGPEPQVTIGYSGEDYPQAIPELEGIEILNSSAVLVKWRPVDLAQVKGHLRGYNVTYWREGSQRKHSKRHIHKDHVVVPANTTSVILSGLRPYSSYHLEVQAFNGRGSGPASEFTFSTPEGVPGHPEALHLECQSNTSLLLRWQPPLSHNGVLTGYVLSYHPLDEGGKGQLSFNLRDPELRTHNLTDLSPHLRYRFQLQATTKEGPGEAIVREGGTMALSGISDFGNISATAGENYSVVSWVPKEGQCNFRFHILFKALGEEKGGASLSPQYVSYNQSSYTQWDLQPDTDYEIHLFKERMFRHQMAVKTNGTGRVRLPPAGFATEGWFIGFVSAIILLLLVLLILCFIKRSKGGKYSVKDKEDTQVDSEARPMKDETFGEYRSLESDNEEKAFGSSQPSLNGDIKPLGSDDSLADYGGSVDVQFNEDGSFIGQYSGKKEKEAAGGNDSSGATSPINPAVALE

B1: hz49E10H1H5L6 (antibody, human IgG1, kappa, V domains shown)
VH: DVQLQESGPGLVKPSQTLSLTCTVSGGSISSDYAWNWIRQPPGKGLEWMGYITYSGTTTYNPSLKSRITISRDTSKNQFSLKLSSVTAADTAVYYCARDHYGNYAYFDYWGQGTTVTVSS
VL: DIQMTQSPSSLSASVGDRVTITCRASSSVSFMHWYQQKPGKAPKPWIYASSNLVSGVPSRFSGSGSGTDFTLTISSLQPEDFATYYCQQWSSNPSTFGGGTKVEIKR
notes: also called humanized anti-L1CAM antibody
- EC50: 0.404 nM

B2: hz103E9B3H5L5 (antibody, human IgG1, kappa, V domains shown)
VH: EVQLVQSGAEVKKPGASVKVSCKASGYTFTSYTMHWVRQAPGQGLEWMGDINPNYGGTSYNEKFKDRVTMTTDTSTSTAYMELRSLRSDDTAVYYCAREGATGTWYFDVWGQGTTVTVSS
VL: B1 VL with R24S, H33F, W46L, A49L, S50T, V54A, S91R, S95P
notes: as for B1
- EC50: 1.68 nM

B5: hz26A12C1H4L3 (antibody, human IgG1, kappa, V domains shown)
VH: QVQLVQSGAEVKKPGSSVKVSCKASGYTFTNYWIQWVRQAPGQGLEWIGYINPSTYYSDYNQKFQGRVTLTADKSTSTAYMELSSLRSEDTAVYYCARRQFGLPLFDYWGQGTTVTVSS
VL: DIQMTQSPSSLSASVGDRVTITCRASQDVGTAVAWYQQKPGKVPKLLIYWASTLHSGVPSRFSGSGSGTDFTLTISSLQPEDVATYFCQQYSNYPLTFGGGTKVEIKR
notes: as for B1
- EC50: 0.738 nM

Continued by falling EC50, values first:

- EC50: 1.48 nM
B3: hz103E9B3H6L5 (antibody, human IgG1, kappa, V domains shown)
VH: B2 VH with V68A
VL: B1 VL with R24S, H33F, W46L, A49L, S50T, V54A, S91R, S95P
notes: as for B1

- EC50: 1.27 nM
B6: hz46F1D5H4L3 (antibody, human IgG1, kappa, V domains shown)
VH: B5 VH with N31R, I48M, Y56G, S58T, L70I, Q100H, F101L
VL: B5 VL with L11V, V43A, T53S, V83F
notes: as for B1

- EC50: 0.377 nM
B4: hz49E10H1H5L7 (antibody, human IgG1, kappa, V domains shown)
VH: B1 VH
VL: B1 VL with D1Q, F70Y
notes: as for B1
